Data: article PMC5874619, “Enzymatic Preparation of 2,5-Furandicarboxylic Acid (FDCA)—A Substitute of Terephthalic Acid—By the Joined Action of Three Fungal Enzymes” (Microorganisms, 2018)

Columns and labels:
Assay in all cases: HPLC, varied substrate, Michaelis-Menten plot
PostAAO = tested on: T1, PostAAO; type: biochemical, Pleurotus ostreatus
T1 construct: gene aao

[1] = substrate: O=Cc1ccc(C=O)o1; type: biochemical, Cyclocybe aegerita; conditions: pH 6.0
[2] = substrate: O=Cc1ccc(CO)o1; type: biochemical, Cyclocybe aegerita; conditions: pH 6.0

Km (PostAAO) [mM] | Molecule | Km [1] [mM] | kcat [1] [s⁻¹] | kcat/Km [1] [M⁻¹ s⁻¹] | Km [2] [mM] | kcat [2] [s⁻¹] | kcat/Km [2] [M⁻¹ s⁻¹]
7.2 | O=Cc1ccc(CO)o1 [HMF, 5-hydroxymethylfurfural] |  |  |  |  |  | 
 | (Cyclocybe aegerita) (protein) EPGLPPGPLENSSAKLVNDEAHPWKPLRPGDIRGPCPGLNTLASHGYLPRNGVATPVQIINAVQEGLNFDNQAAVFATYAAHLVDGNLITDLLSIGRKTRLTGPDPPPPASVGGLNEHGTFEGDASMTRGDAFFGNNHDFNETLFEQLVDYSNRFGGGKYNLTVAGELRFKRIQDSIATNPNFSFVDFRFFTAYGETTFPANLFVDGRRDDGQLDMDAARSFFQFSRMPDDFFRAPSPRSGTGVEVVIQAHPMQPGRNVGKINSYTVDPTSSDFSTPCLMYEKFVNITVKSLYPNPTVQLRKALNTNLDFFFQGVAAGCTQVFPYGRD | 0.82 | 29.2 | 35600 | 6.07 | 222 | 36600
